Test results published in US6858210B1, “Therapeutic and diagnostic domain 1 β2GPI polypeptides and methods of using same” (La Jolla Pharmaceutical Co., priority 1998, dated 2005).

What was measured:
APS patient plasma = assay: Surface plasmon resonance (BIAcore): APS patient plasma/serum over immobilized β2GPI proteins; format: binding, human; set-up: key: Req = fitted equilibrium plateau BIAcore response; settings: for Median Req / Req (mean ± sem): serum of 106 APS patients (GPL ≧ 20); for Req (mean ± sem): diluted 1:1
From the text: (§1) Reagents. CM5 chips, NHS and EDC and HBS-EP buffer were from BIAcore. Human haptoglobin (phenotyope 1—1), a protein containing the short consensus repeat motif found in β2GPI, was immobilized in a separate flow cell on the chip and used as a negative control. Recombinant β2GPI and domain-deletion mutants of β2GPI were expressed in Tn5 cells using the baculovirus protein expression system and purified from the supernatants by nickel-chelation affinity column. Iverson et al. (1998) Proc. Natl. Acad. Sci. USA 95:15542-15546. Normal human plasma samples were purchased (George King Biomedical) or obtained in-house. Patient plasma samples from individuals diagnosed with either primary or secondary (to lupus) antiphospholipid antibody syndrome were obtained from a number of clinical sources.
(§2) The 55 controls used in this study were derived from a heterogenous sample. Thirty control samples (15 male; 15 female; mean age 34 yrs, range 19-45 yrs) purchased from George King Bio-Medical (Overland Park, Kans.), 5 local volunteers (3 male, 2 female), 2 pooled commercial sources and 18 blood bank donors of unknown origin were included in the analysis. The patient samples were collected from several sources and included patients with histories of venous thrombosis, arterial occlusions, cerebrovascular occlusions, multiple miscarriages and thrombocytopenia. All patients included in the study had IgG antiphospholipid antibody level (GPL) levels>20 by internal assay.
Total IgG fraction was isolated from plasma using Immunopure Plus protein G agarose beads and Immunopure IgG binding and elution buffers according to the manufacturers recommendation (Pierce).
(§3) Surface Plasmon Resonance. All experiments were performed using a BIAcore™ 2000 instrument at 25° C. with a flow rate of 10 μL/minute. Chip equilibration and binding studies were performed with degassed HBS-EP buffer, which consists of 0.01 M HEPES pH 7.4, 0.15 M NaCl, 3 mM EDTA and 0.005% (v/v) surfactant P20. Covalent coupling of protein ligands through their free amino groups to the CM5 chip was accomplished by flowing 40 μL of 0.05 M NHS/0.2M EDC over the chip to activate the chip, followed by exposure to the appropriate protein ligand. Recombinant β2GPI(His)6, domain-deletion mutants of β2GPI and haptoglobin were immobilized by flowing 50 μL of a 25 μg/mL solution in 10 mM acetate, (pH 4.8) over the NHS-activated CM5 chip. The excess reactive groups on the chip surface are then quenched with 40 μL of 1 M ethanoloamine, (pH 8.5). Human plasma samples (130 μL) were diluted 1:1 with HBS-EP, flowed over the β2GPI chip, and response values were collected for 780 seconds. The chips were regenerated between sample exposures with 80 μL of 0.1 M glycine-HCl (pH 2.1), 0.1 M NaCl. Since the approach to binding equilibrium was incomplete during the measurement period, the equilibrium binding value (Req) was determined by fitting the association curves to the following equation using the manufacturers software (BiaEvaluation version 2.2, Uppsala, Sweden) Rt=Req(I−e^−ks(t−t0))+R0 where Rt is the measured BIAcore response at time t, Req is the equilibrium plateau response, t is time, t0 is initial time, k, is an apparent association constant (ks=kaC+kdis, where ka is the association constant, C is the analyte concentration and kdis is the dissociation constant), and R0 is a response offset. In some experiments total IgG fractions from human plasma samples were obtained from binding to and acid elution from protein G. The plasma remaining after binding to protein G was remixed with fresh protein G beads and isolated as IgG-stripped plasma. Neutralized IgG preparations and IgG-stripped plasma diluted 1:1 with buffer were flowed over the β2GPI chip as described above. Results and Discussion

Normal human plasma = assay: Surface plasmon resonance (BIAcore): control plasma/serum over immobilized β2GPI proteins; format: binding; settings: serum of 55 controls; for Req (mean ± sem): diluted 1:1
From the text: as §1, §2
as §3, with “Neutralized IgG preparations and IgG-stripped plasma diluted 1:1 with buffer were flowed over the β2GPI chip as described above. Results and Discussion” left out

[1] = non-selective patient 6117, IgG-stripped Plasma (1:2)
[2] = non-selective patient 6117, Total IgG (1:4)
[3] = non-selective patient 6117, Whole Plasma (1:2)
[4] = non-selective patient 6194, IgG-stripped Plasma (1:2)
[5] = non-selective patient 6194, Total IgG (1:4)
[6] = non-selective patient 6194, Whole Plasma (1:2)
[7] = non-selective patient 6611, IgG-stripped Plasma (1:2)
[8] = non-selective patient 6611, Total IgG (1:4)
[9] = non-selective patient 6611, Whole Plasma (1:2)
[10] = non-selective patient 6627, IgG-stripped Plasma (1:2)
[11] = non-selective patient 6627, Total IgG (1:4)
[12] = non-selective patient 6627, Whole Plasma (1:2)
[13] = non-selective patient 6649, IgG-stripped Plasma (1:2)
[14] = non-selective patient 6649, Total IgG (1:4)
[15] = non-selective patient 6649, Whole Plasma (1:2)
[16] = non-selective patient 7013, IgG-stripped Plasma (1:2)
[17] = non-selective patient 7013, Total IgG (1:4)
[18] = non-selective patient 7013, Whole Plasma (1:2)
[19] = patient 6207, IgG-stripped Plasma (1:2)
[20] = patient 6207, Whole Plasma (1:2)
[21] = patient 6501, IgG-stripped Plasma (1:2)
[22] = patient 6501, Whole Plasma (1:2)
[23] = patient 6515, IgG-stripped Plasma (1:2)
[24] = patient 6515, Whole Plasma (1:2)
[25] = patient 6601, IgG-stripped Plasma (1:2)
[26] = patient 6601, Whole Plasma (1:2)
[27] = patient 6626, IgG-stripped Plasma (1:2)
[28] = patient 6626, Whole Plasma (1:2)
[29] = patient 6642, IgG-stripped Plasma (1:2)
[30] = patient 6642, Whole Plasma (1:2)
[31] = patient 6701, IgG-stripped Plasma (1:2)
[32] = patient 6701, Whole Plasma (1:2)
[33] = patient 6703, IgG-stripped Plasma (1:2)
[34] = patient 6703, Whole Plasma (1:2)
[35] = patient 7015, IgG-stripped Plasma (1:2)
[36] = patient 7015, Whole Plasma (1:2)
[37] = patient 7201, IgG-stripped Plasma (1:2)
[38] = patient 7201, Whole Plasma (1:2)

B1: -2345: recombinant β2GPI deletion mutant with domains 2-5 (protein)
chain: GRTPRVCPFAGILENGAVRYTTFEYPNTISFSCNTGFYLNGADSAKCTEEGKWSPELPVCAPIICPPPSIPTFATLRVYKPSAGNNSLYRDTAVFECLPQHAMFGNDTITCTTHGNWTKLPECREVKCPFPSRPDNGFVNYPAKPTLYYKDKATFGCHDGYSLDGPEEIECTKLGNWSAMPSCKASCKLPVKKATVVYQGERVKIQEKFKNGMLHGDKVSFFCKNKEKKCSYTEDAQCIDGTIEVPKCFKEHSSLAFWKTDASDVKPCGHHHHHH
Req (APS patient plasma; 43/106 APS patients with negligible interaction): < 9
BIAcore Req (APS patient plasma; [1]): 0
BIAcore Req (APS patient plasma; [2]): 79
BIAcore Req (APS patient plasma; [3]): 386
BIAcore Req (APS patient plasma; [4]): 0
BIAcore Req (APS patient plasma; [5]): 688
BIAcore Req (APS patient plasma; [6]): 3197
BIAcore Req (APS patient plasma; [7]): 0
BIAcore Req (APS patient plasma; [8]): 177
BIAcore Req (APS patient plasma; [9]): 1002
BIAcore Req (APS patient plasma; [10]): 0
BIAcore Req (APS patient plasma; [11]): 182
BIAcore Req (APS patient plasma; [12]): 549
BIAcore Req (APS patient plasma; [13]): 0
BIAcore Req (APS patient plasma; [14]): 127
BIAcore Req (APS patient plasma; [15]): 553
BIAcore Req (APS patient plasma; [16]): 0
BIAcore Req (APS patient plasma; [17]): 75
BIAcore Req (APS patient plasma; [18]): 167
BIAcore Req (APS patient plasma; [19]): 0
BIAcore Req (APS patient plasma; patient 6207, Total IgG (1:4)): 0
BIAcore Req (APS patient plasma; [20]): 19
BIAcore Req (APS patient plasma; [21]): 0
BIAcore Req (APS patient plasma; patient 6501, Total IgG (1:4)): 0
BIAcore Req (APS patient plasma; [22]): 333
BIAcore Req (APS patient plasma; [23]): 0
BIAcore Req (APS patient plasma; patient 6515, Total IgG (1:4)): 0
BIAcore Req (APS patient plasma; [24]): 259
BIAcore Req (APS patient plasma; [25]): 0
BIAcore Req (APS patient plasma; patient 6601, Total IgG (1:4)): 0
BIAcore Req (APS patient plasma; [26]): 84
BIAcore Req (APS patient plasma; [27]): 0
BIAcore Req (APS patient plasma; patient 6626, Total IgG (1:4)): 0
BIAcore Req (APS patient plasma; [28]): 37
BIAcore Req (APS patient plasma; [29]): 0
BIAcore Req (APS patient plasma; patient 6642, Total IgG (1:4)): 0
BIAcore Req (APS patient plasma; [30]): 8
BIAcore Req (APS patient plasma; [31]): 0
BIAcore Req (APS patient plasma; patient 6701, Total IgG (1:4)): 0
BIAcore Req (APS patient plasma; [32]): 199
BIAcore Req (APS patient plasma; [33]): 0
BIAcore Req (APS patient plasma; patient 6703, Total IgG (1:4)): 0
BIAcore Req (APS patient plasma; [34]): 65
BIAcore Req (APS patient plasma; [35]): 0
BIAcore Req (APS patient plasma; patient 7015, Total IgG (1:4)): 0
BIAcore Req (APS patient plasma; [36]): 158
BIAcore Req (APS patient plasma; [37]): 0
BIAcore Req (APS patient plasma; patient 7201, Total IgG (1:4)): 0
BIAcore Req (APS patient plasma; [38]): 0
Median Req (APS patient plasma): 24
Req (mean ± sem) (APS patient plasma): 158 ± 36
Median Req (Normal human plasma): 103
Req (mean ± sem) (Normal human plasma): 160 ± 26

B2: 12345: recombinant full length human β2GPI (domains 1-5) with C-terminal GlyHis6, baculovirus expressed (protein)
chain: GRTCPKPDDLPFSTVVPLKTFYEPGEEITYSCKPGYVSRGGMRKFICPLTGLWPINTLKCTPRVCPFAGILENGAVRYTTFEYPNTISFSCNTGFYLNGADSAKCTEEGKWSPELPVCAPIICPPPSIPTFATLRVYKPSAGNNSLYRDTAVFECLPQHAMFGNDTITCTTHGNWTKLPECREVKCPFPSRPDNGFVNYPAKPTLYYKDKATFGCHDGYSLDGPEEIECTKLGNWSAMPSCKASCKLPVKKATVVYQGERVKIQEKFKNGMLHGDKVSFFCKNKEKKCSYTEDAQCIDGTIEVPKCFKEHSSLAFWKTDASDVKPCGHHHHHH
BIAcore Req (APS patient plasma; [1]): 0
BIAcore Req (APS patient plasma; [2]): 120
BIAcore Req (APS patient plasma; [3]): 324
BIAcore Req (APS patient plasma; [4]): 0
BIAcore Req (APS patient plasma; [5]): 470
BIAcore Req (APS patient plasma; [6]): 2046
BIAcore Req (APS patient plasma; [7]): 0
BIAcore Req (APS patient plasma; [8]): 251
BIAcore Req (APS patient plasma; [9]): 892
BIAcore Req (APS patient plasma; [10]): 0
BIAcore Req (APS patient plasma; [11]): 132
BIAcore Req (APS patient plasma; [12]): 324
BIAcore Req (APS patient plasma; [13]): 0
BIAcore Req (APS patient plasma; [14]): 253
BIAcore Req (APS patient plasma; [15]): 758
BIAcore Req (APS patient plasma; [16]): 0
BIAcore Req (APS patient plasma; [17]): 115
BIAcore Req (APS patient plasma; [18]): 241
BIAcore Req (APS patient plasma; [19]): 0
BIAcore Req (APS patient plasma; patient 6207, Total IgG (1:4)): 480
BIAcore Req (APS patient plasma; [20]): 1450
BIAcore Req (APS patient plasma; [21]): 0
BIAcore Req (APS patient plasma; patient 6501, Total IgG (1:4)): 732
BIAcore Req (APS patient plasma; [22]): 1526
BIAcore Req (APS patient plasma; [23]): 0
BIAcore Req (APS patient plasma; patient 6515, Total IgG (1:4)): 440
BIAcore Req (APS patient plasma; [24]): 1024
BIAcore Req (APS patient plasma; [25]): 0
BIAcore Req (APS patient plasma; patient 6601, Total IgG (1:4)): 266
BIAcore Req (APS patient plasma; [26]): 792
BIAcore Req (APS patient plasma; [27]): 49
BIAcore Req (APS patient plasma; patient 6626, Total IgG (1:4)): 1132
BIAcore Req (APS patient plasma; [28]): 1622
BIAcore Req (APS patient plasma; [29]): 48
BIAcore Req (APS patient plasma; patient 6642, Total IgG (1:4)): 480
BIAcore Req (APS patient plasma; [30]): 811
BIAcore Req (APS patient plasma; [31]): 0
BIAcore Req (APS patient plasma; patient 6701, Total IgG (1:4)): 460
BIAcore Req (APS patient plasma; [32]): 952
BIAcore Req (APS patient plasma; [33]): 0
BIAcore Req (APS patient plasma; patient 6703, Total IgG (1:4)): 556
BIAcore Req (APS patient plasma; [34]): 1001
BIAcore Req (APS patient plasma; [35]): 0
BIAcore Req (APS patient plasma; patient 7015, Total IgG (1:4)): 864
BIAcore Req (APS patient plasma; [36]): 2092
BIAcore Req (APS patient plasma; [37]): 0
BIAcore Req (APS patient plasma; patient 7201, Total IgG (1:4)): 292
BIAcore Req (APS patient plasma; [38]): 603
Median Req (APS patient plasma): 635
Req (mean ± sem) (APS patient plasma; listed as D1-5): 730 ± 42
Req (mean ± sem) (APS patient plasma; listed as β2-GPI(D1-5)): 730
Median Req (Normal human plasma): 201
Req (mean ± sem) (Normal human plasma; listed as D1-5): 328 ± 52
Req (mean ± sem) (Normal human plasma; listed as β2-GPI(D1-5)): 328
